Assay results published in publication PMC5407579.

Key:
[1] = biological target: α subunit of the oxygenase component of 3-nitrotoluene dioxygenase (3NTDO-ODS2) from Diaphorobacter sp. strain DS2 (Diaphorobacter sp. strain DS2); test: crystal structure; oxygenase 3NTDO-ODS2 (α and β co-expressed and co-purified), hanging drop vapor diffusion at 277 K, 0.2M sodium citrate tribasic and 20% PEG 3350 pH 8.3; molecular replacement with 1NDO; 2.9 Å
[2] = biological target: β subunit of the oxygenase component of 3-nitrotoluene dioxygenase (3NTDO-ODS2) from Diaphorobacter sp. strain DS2 (Diaphorobacter sp. strain DS2); test: as above

Substance | stoichiometry N [1] | stoichiometry N [2]
α subunit of the oxygenase component of 3-nitrotoluene dioxygenase (3NTDO-ODS2) from Diaphorobacter sp. strain DS2 (natural protein) | 3 | –
β subunit of the oxygenase component of 3-nitrotoluene dioxygenase (3NTDO-ODS2) from Diaphorobacter sp. strain DS2 (natural protein) | – | 3
